Here are results for one substance from doi:10.1101/2021.05.25.445586.

Read-outs that look alike come from different tables or passages of the source.

The target in experiment [1] is mouse WT-RELN (Reelin), full-length (mouse) (UniProt Q60841). The experiment is described as follows: non-reducing SDS-PAGE with immunoblot.
The target is the same in experiment [2]. The experiment is described as follows: non-reducing SDS-PAGE with immunoblot. The source holds these as a separate data set.

In general, stoichiometry N refers to the number of molecules, sites or subunits per partner or assembly.

On to “mouse WT-RELN (Reelin), full-length, Q60841 27-3461”, for which the stoichiometry N in experiment [1] and in experiment [2] was 2 in each case.
